Laboratory results taken from the RNAGym collection of RNA variant scans (doi:10.7554/elife.90254).

B1: LINE1-mini (parent)
chain: GGCAGAGCUCAACACAGCGUGGCAAAGUGGCUGUGGCUAGACUGCC

Variants of: B1
Experiment: self-cleavage, relative activity (ratio to wild type); higher = more cleavage; in vitro, sequencing; the parent is a self-cleaving ribozyme

Compared with A16C G44A, A16C G44U is higher in self-cleavage: 0.05 for the first, 0.07 for the second.

Going from A16C U20A to A16C U20G, the self-cleavage rises from 0.05 to 0.08.

Compared with A16C U20C, A16U A39G is lower in self-cleavage: 0.19 for the first, 0.07 for the second.

A16U A39U and A16U A39C are the same in self-cleavage: 0.08 for the first, 0.08 for the second.

Going from A16U U43G to A16U U43A, the self-cleavage rises from 0.02 to 0.05.

First: A16U U43C
Second: A16G G30A
The self-cleavage of the first is lower: 0.04 for the first, 0.67 for the second.

Compared with A16G G30U, A16G G30C is higher in self-cleavage: 0.31 for the first, 1.19 for the second.

Going from A16G U38A to A16G U38G, the self-cleavage falls from 0.4 to 0.01.

Compared with A16G U38C, A16G C42U is lower in self-cleavage: 0.18 for the first, 0.09 for the second.

Going from A16G C42A to A16G C42G, the self-cleavage falls from 0.07 to 0.03.

Going from A16U G22C to A16U G22A, the self-cleavage rises from 0.28 to 0.42.

First: A16U G22U
Second: G17A A39G
The self-cleavage of the first is higher: 0.42 for the first, 0.06 for the second.

Going from G17A A39C to G17A A39U, the self-cleavage falls from 0.07 to 0.06.

Going from A16G C37U to A16G C37A, the self-cleavage rises from 0.04 to 0.08.

First: A16G C37G
Second: A16G A41C
The self-cleavage of the first is lower: 0.02 for the first, 0.11 for the second.

First: A16G A41U
Second: A16G A41G
The self-cleavage of the first is higher: 0.16 for the first, 0.15 for the second.

Going from A16G G35C to A16G G35A, the self-cleavage falls from 0.04 to 0.03.

Compared with A16G G35U, A16G G33U is lower in self-cleavage: 0.11 for the first, 0.04 for the second.

Compared with A16G G33C, A16G G33A is lower in self-cleavage: 0.05 for the first, 0.03 for the second.

First: A16U G17C
Second: A16U G17U
The self-cleavage of the first is higher: 0.2 for the first, 0.03 for the second.

Compared with A16U G17A, A16U G29U is higher in self-cleavage: 0.06 for the first, 0.39 for the second.

First: A16U G29A
Second: A16U G29C
The self-cleavage of the first is lower: 0.38 for the first, 0.53 for the second.

Going from A16G G44A to A16G G44U, the self-cleavage falls from 0.25 to 0.05.

Going from A16G G44C to A16C G40A, the self-cleavage falls from 0.19 to 0.05.

A16C G40U and A16C G40C are the same in self-cleavage: 0.03 for the first, 0.03 for the second.

First: A16C U38G
Second: A16C U38A
The self-cleavage of the first is lower: 0.03 for the first, 0.13 for the second.

Going from A16C U38C to C15U U34A, the self-cleavage falls from 0.1 to 0.08.

Going from C15U U34C to C15U U34G, the self-cleavage falls from 0.14 to 0.07.

Going from A16U U34A to A16U U34G, the self-cleavage falls from 0.04 to 0.02.

First: A16U U34C
Second: A16C G19C
The self-cleavage of the first is lower: 0.07 for the first, 0.4 for the second.

Going from A16C G19U to A16C G19A, the self-cleavage rises from 0.08 to 0.18.

Going from A16C C23A to A16C C23U, the self-cleavage rises from 0.12 to 0.45.

First: A16C C23G
Second: C15U G44A
The self-cleavage of the first is lower: 0.08 for the first, 0.26 for the second.

Compared with C15U G44U, C15U G44C is higher in self-cleavage: 0.09 for the first, 0.31 for the second.

Compared with A16G U20G, A16G U20C is higher in self-cleavage: 0.16 for the first, 0.37 for the second.

Compared with A16G U20A, A16U C18A is lower in self-cleavage: 0.16 for the first, 0.05 for the second.

Compared with A16U C18G, A16U C18U is higher in self-cleavage: 0.05 for the first, 0.07 for the second.

First: A16C C45A
Second: A16C C45G
The self-cleavage of the first is higher: 0.07 for the first, 0.06 for the second.

Going from A16C C45U to C15U U20C, the self-cleavage rises from 0.07 to 0.32.

Going from C15U U20G to C15U U20A, the self-cleavage rises from 0.49 to 0.92.

Compared with A16U A25U, A16U A25C is lower in self-cleavage: 0.1 for the first, 0.03 for the second.

Compared with A16U A25G, A16G A39C is higher in self-cleavage: 0.07 for the first, 0.12 for the second.
